Laboratory results taken from publication PMC10298926, “Biophysical Characterization of the Binding Mechanism between the MATH Domain of SPOP and Its Physiological Partners” (International Journal of Molecular Sciences, 2023).
Where no end group is shown, it is not given here. The star is where a group is joined. Dansyl = CN(C)c1cccc2c(S(=O)(=O)*)cccc12

Key:
[1] = substrate: SPOP MATH R71A (UniProt O43791); assay: stopped-flow fluorescence displacement; preincubated complex of MATH domain and dansylated peptide (both 8 µM) mixed with an excess of nondansylated peptide (50 µM); 298 K; same buffer as the binding experiments; single exponential decay gives koff
[2] = substrate: SPOP MATH F134A (UniProt O43791); assay: as above
[3] = substrate: SPOP MATH K130A (UniProt O43791); assay: as above
[4] = substrate: SPOP MATH D131A (UniProt O43791); assay: as above
[5] = substrate: SPOP MATH K135A (UniProt O43791); assay: as above
[6] = substrate: SPOP MATH Y88A (UniProt O43791); assay: as above
[7] = substrate: SPOP MATH Y124A (UniProt O43791); assay: as above
[8] = target: engineered MATH domain of SPOP (Speckle-type POZ protein), residues 1-182, cysteine residues substituted to serine (UniProt O43791); assay: other fluorescence titration; equilibrium; FRET from the tryptophans of SPOP MATH (excited at 280 nm, emission 300-400 nm) to the dansyl of the peptide; MATH at constant concentration (2 µM in the methods, 1 µM in the results), dansylated peptide 0 to 40 µM; 298 K; hyperbolic fit
[9] = target: engineered MATH domain of SPOP (Speckle-type POZ protein), residues 1-182, cysteine residues substituted to serine (UniProt O43791); assay: stopped-flow fluorescence binding kinetics; pseudo-first-order; 2 µM MATH mixed with dansylated peptide, 2 to 10 µM Puc and MacroH2A, 2 to 40 µM PTEN; excitation 280 nm; 298 K; kobs against peptide concentration fitted to a line, kon from the slope
[10] = target: engineered MATH domain of SPOP (Speckle-type POZ protein), residues 1-182, cysteine residues substituted to serine (UniProt O43791); assay: stopped-flow fluorescence binding kinetics + other: stopped-flow fluorescence displacement; KD calculated by combining kon of the pseudo-first-order plots with koff of the displacement experiments; 298 K
[11] = substrate: SPOP MATH R71A (UniProt O43791); assay: stopped-flow fluorescence binding kinetics; pseudo-first-order; 2 µM MATH mixed with dansylated peptide, 2 to 10 µM Puc and MacroH2A, 2 to 40 µM PTEN; excitation 280 nm; 298 K; kobs against peptide concentration fitted to a line, kon from the slope
[12] = substrate: SPOP MATH F134A (UniProt O43791); assay: as above
[13] = substrate: SPOP MATH K130A (UniProt O43791); assay: as above
[14] = substrate: SPOP MATH D131A (UniProt O43791); assay: as above
[15] = substrate: SPOP MATH K135A (UniProt O43791); assay: as above
[16] = substrate: SPOP MATH Y88A (UniProt O43791); assay: as above
[17] = substrate: SPOP MATH Y124A (UniProt O43791); assay: as above
[18] = target: engineered MATH domain of SPOP (Speckle-type POZ protein), residues 1-182, cysteine residues substituted to serine (UniProt O43791); assay: stopped-flow fluorescence displacement; preincubated complex of MATH domain and dansylated peptide (both 8 µM) mixed with an excess of nondansylated peptide (50 µM); 298 K; same buffer as the binding experiments; single exponential decay gives koff

Dansyl-DEVTSTTSSS [dansylated peptide mimicking Puc (region 96-105)] gave a koff [1] of 34 s⁻¹, a koff [2] of 15 s⁻¹ and a koff [3] of 123 s⁻¹. For the same binder, the koff [4] was 241 s⁻¹, the koff [5] was 45.2 s⁻¹ and the koff [6] was 302 s⁻¹. It also gave a koff [7] of 78 s⁻¹, a Kd [8] of 1400 nM and a kon [9] of 1.9e+07 M⁻¹ s⁻¹. It also gave a Kd [10] of 1400 nM, a kon [11] of 8.8e+06 M⁻¹ s⁻¹ and a kon [12] of 9.4e+06 M⁻¹ s⁻¹. For the same binder, the kon [13] was 1.3e+07 M⁻¹ s⁻¹, the kon [14] was 1.82e+07 M⁻¹ s⁻¹ and the kon [15] was 6.3e+06 M⁻¹ s⁻¹. It also gave a kon [16] of 1.44e+07 M⁻¹ s⁻¹, a kon [17] of 6.71e+06 M⁻¹ s⁻¹ and a koff [18] of 26.1 s⁻¹.
